Variants at the floor of the assay were thinned out.
B1: TPR 5TU (parent)
chain: GGAUCUUCUCGAUCUAACAAAAAAGACAAAUCUGCCACAAAGCUUGAGAGCAUCUUCGGAUGCAGAGGCGGCAGCCUUCGGUGGCGCGAUAGCGCCAACGUUCUCAACUAUGACACGCAAAACGCGUGCUCCGUUGAAUGGAGUUUAUCAUG

Variants of: B1
Test: polymerase ribozyme fitness, log enrichment relative to wild type (log ratio); higher = more active; in vitro selection for triplet polymerase activity
Procedure, shortened: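 The heterodimeric triplet polymerase ribozyme's subunits were each mutagenized into PCR-built libraries and transcribed. Every library was selected once, in triplicate, by annealing with a biotinylated primer, the partner subunit and triplets, incubating frozen at −7 °C, gel-excising extended constructs, capturing on streptavidin beads and running RT-PCR. Input and output libraries were Illumina-sequenced, with genotypes kept only at ≥10 input reads and ≥1 read per output. Fitness, from inverse-variance-weighted replicate averages, is the base-2 logarithm of genotype enrichment over wild-type enrichment.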

Row | Variant | polymerase ribozyme fitness (log ratio)
1 | GGAUCUUCUCGAUCUAACAAAAAAGACAAAUCUGCCACAAAGCUUGAGAGCAUCUACGGAGGCAGAGGCGGCAGCCUUCGGUGGCGCCAUAGCGCCAACGUUCUCAACUAUGACACGCAAAACGCGUGCUCCGUUUAAUGGAGUUUAUCAUG | ≤ -4.2
2 | GGAUCUUCUCGAUCUAACAAAAAAGACAAAUCUGCCACAAAGCUUGAGAGCAUCUACGUAUGCAGAGGAGGCAGCCUUCGGUGGCGUGAUAGCGCCAACGCUCUCAACUAUGACACGCAAAACGCGUGCUCCGUUGAAUUGAGUUUAUCAUG | -3.01
3 | GGAUCUUCUCGAUCUAACAAAAAAGACAAAUCUGCCACAAAGCUUGAGAGCAUCUACGGAUGCAGAGGCGGCAGCCUUCGCUGGCGUGAUAGCGCCAACGUUCUCAACUAUGACACGCAAAACGCGUGCUCCGUUGAAUGGAGUUUAUCAUG | -1.03
4 | GGAUCUUCUCGAUCUAACAAAAAAGACAAAUCUGCCACAAAGCUUGAGAGCAUCUACGGAUGCAGAGGCCGCAGCCUUCGGUGGCGCGAUAGCGCCAACGUUCUCAACUAUGACACCCAAAACGCGUGCUCCGUUGAAUGGAGUUUAUCAUG | -3.79
5 | GGAUCUUCUCGAUCUAACAAAAAAGACAAAUCUGCCACAAAGCUUGAGAGCAUCUACGGAUGCAGAGGCGGCAGCCUUCGGUGCCGCGAUAGCGCCAACGUUCUCAACUAUGACACGCAAAACGCGUGCUCCGUUGAAUGGAGUUUAUCGUG | -3.39
6 | GGAUCUUCUCGAUCUAACAAAAAAGACAAAUCUGCCACAAAGCUUGAGAGCAUCUACGGAUGCAGAGGCGGCAGCCUUCGGUGGCGCCAUAGCGCCAACGUUCUCAACUAUGACACGCAAAACGCGUGCUCCGUUGAAUGGAGUGUAUCAUG | -4.05
7 | GGAUCUUCUCGAUCUAACAAAAAAGACAAAUCUGCCACAAAGCUUGAGAGCAUCUACGGAUGCAGAGGCGGCAGCCUUCGGUAGCGUGAUAGCGCCAACGUUCUCAACUAUGACACGCAAAACGCGUGCUCCGUUGAAUGGAGUUUAUCAUG | -3.83
8 | GGAUCUUCUCGAUCUAACAAAAAAGACAAAUCUGCCACAAAGCUUGAGAGCAUCUACGGAUACAGAGGCGGCAGCCUCCGGUUGCGCGAUAGCGCCAACGUUCUCAACUAUGACACGCAAAACGCGUGCUCCGUUGAAUGGAGUUUAUCAUG | -3.55
9 | GGAUCUUCUCGAUCUAACAAAAAAGACAAAUCUGCCACAAAGCUUGAGAGCAUCUACGGAUGCAGAGGCGGCAGCCUUCGGUGGCGCCAUAGCGCCAACGUUCUCAACUAUGACACGCAAAGGGCGUGCUCCGUUGAAUGGAGUUUAUCAUG | ≤ -4.2
10 | GGAUCUUCUCGAUCUAACAAAAAAGACAAAUCUGCCACAAAGCUUGAGAGCAUCUACGGAUGCAGAGGCGGCAGCCUUCGGUGGCGCGAUAGCGCCAACGUUCUCAACUAUGACACGCAAAACGCGUGCUCCGUUUAAUGGAGUUUAUCAUG | -2.72
11 | GGAUCUUCUCGAUCUAACAAAAAAGACAAAUCUGCCACAAAGCUUGAGAGCAUCUACGGAUGCAGAGGCGGCAGCCUUCGUUGGCGCGAUAGGGCCAACGUUCUCAACUAUGACACGCAAAACGCGUGCUCCGUUGAAUGGAGUUUAUCAUG | -3.18
12 | GGAUCUUCUCGAUCUAACAAAAAAGACAAAUCUGCCACAAAGCUUGAGAGCAUCUACGGAUGCAGAGGCGGCAGCCUUCGGAGGCGCGAUAGCGCAAACGUUCUCAACUAUGAGACGCAAAACGCGUGCUCCGUUGAAUGGAGUUUAUCAUG | -3.42
13 | GGAUCUUCUCGAUCUAACAAAAAAGACAAAUCUGCCACAAAGCUUGAGAGCAUCUACGGAUGCAGAGGCGGCAGCCUUCGGUGGCGCGAUAGCGCCAACGUUCUCAACUAUGACACGCAAAACGCGUACUCCGUUGAAUGGAGUUUAUCAUG | -3.15
14 | GGAUCUUCUCGAUCUAACAAAAAAGACAAAUCUGCCACAAAGCUUGAGAGCAUCUACGGAUGCAGAGGCGGCAGCCUUCGGUGACGCGAUGGCGCCAACGUUCUCAACUAUGACACGCAAAACGCGUGCUCCGUUGAAUGGAGUUUAUCAUG | -3.59
15 | GGAUCUUCUCGAUCUAACAAAAAAGACAAAUCUGCCACAAAGCUUGAGAGCAUCUACGGAUGCAGAGGCGGCAGCCUUCGGUGGCGCGAUAGCGCCAACGUUCUCAACUAUGACACGCAAAACGCGUGCUCCGUUGAAUGGAGCUUAUCAUG | 0.537
16 | GGAUCUUCUCGAUCUAACAAAAAAGACAAAUCUGCCACAAAGCUUGAGAGCAUCUACGGAUGCAGAGGCGGCAGCCUUCGGUGGCGCGAUAGCGCCAACGUUCUCAACUAUGACACGCAAAACGCGUGCUCCGUAGAAUGGAGUUUAUCAUG | -1.16
17 | GGAUCUUCUCGAUCUAACAAAAAAGACAAAUCUGCCACAAAGCUUGAGAGCAUCUACGGAUGCAGAGGCGGCAGCCUUCGCUAGCGGGAUAGCGCCAACGUUCUCAGCUAUGACACGCAAACCGCGUGCUCCGUUGAAUGUAGUUUAUCAUG | ≤ -4.2
18 | GGAUCUUCUCGAUCUAACAAAAAAGACAAAUCUGCCACAAAGCUUGAGAGCAUCUACGGAUGCAGAGGCGGCAGCCUGCGGUGGCGCGAUAGCGCCAACGUUCUCAACUAUCACACGCAAAACGCGUGCUCCGUUGAACGGAGUUUAUCAUG | ≤ -4.2
19 | GGAUCUUCUCGAUCUAACAAAAAAGACAAAUCUGCCACAAAGCUUGAGAGCAUCUACGGAUGCAGAGGCGGCAGCCUUCGGUGGCGCGAUAGCGCCAACGUUCUCAACUAUGACACGCAAAACGCGGGCUCCGUUGAAUGGAGUUUAUCAUG | -2.83

Row | Variant | polymerase ribozyme fitness (log ratio)
20 | GGAUCUUCUCGAUCUAACAAAAAAGACAAAUCUGCCACAAAGCUUGAGAGCAUCUACGGAUGCAGAGGCGGCAGCCUUCCGUGGCGCGAUAGAGACAACGUGCUCAACUAUGAAACGCAAAACGCGUGCUCCGUUGAAUGGAGUUUAUCUUG | ≤ -4.2
21 | GGAUCUUCUCGAUCUAACAAAAAAGACAAAUCUGCCACAAAGCUUGAGAGCAUCUACGGAUGCAGAGGCGGCAGCCUUCGGUGGCGCGAUAGCGCCAACGUUCUCAACUAUGACACGCAAAACGCGUGCUCCGUUGAAUGGACUUUAUCAUG | -2.27
22 | GGAUCUUCUCGAUCUAACAAAAAAGACAAAUCUGCCACAAAGCUUGAGAGCAUCUACGGAUGCAGAGGCGGCAGCCUUCGGUGGCGCGAUAGCACCUACGUUCUCAACUAUGACACGCAAAACGCGUGCUCCGUUGAAUGGAGUUUAUCAUG | -1.41
23 | GGAUCUUCUCGAUCUAACAAAAAAGACAAAUCUGCCACAAAGCUUGAGAGCAUCUACGGAUGCAGAGGCGGCAGCCUUCGGUGGCGCGAUAGCGCCAACGUUCUCAACUAUGACACGCAAAACGCGUGCUCCGUUGAACGGAGUUUAUCAUG | -3.15
24 | GGAUCUUCUCGAUCUAACAAAAAAGACAAAUCUGCCACAAAGCUUGAGAGCAUCUACGGAUGCAGAGGCGGCAGCCUUCGGUGGCGCCAUAGCGCCAAUGUUCUCAACUAUGACACGCGAAACGCGUGCUCCGUUGAAUGGAGUUUAUCAUG | ≤ -4.2
25 | GGAUCUUCUCGAUCUAACAAAAAAGACAAAUCUGCCACAAAGCUUGAGAGCAUCUACGGAUGCAGAGGCGGCAGCCUUCGGUGGCGCGAUAACGCCAACGUUCUCAACUAUGACACGCAAAACGCGUGCUCCGUUGAAUGGAGUUUAUCGUG | -2.08
26 | GGAUCUUCUCGAUCUAACAAAAAAGACAAAUCUGCCACAAAGCUUGAGAGCAUCUACGGAUGCAGAGGCGGCAGCCUUCGGUGGCCCGAUAGCGCCAACGUUCUCAACUAUGACACGCAAAACGCGUGCUCCGUUGAAUGGAGUUUAUCAUG | ≤ -4.2
27 | GGAUCUUCUCGAUCUAACAAAAAAGACAAAUCUGCCACAAAGCUUGAGAGCAUCUACGGAUGCAGAGGCGGCAGCCUUCGGUGGCUCGAUAGCGCCAACGUUCUCAACUAUGACACGCAAAACGCGUGCUCCGUUGAAUGGAGUUUAUCAUG | -0.958
28 | GGAUCUUCUCGAUCUAACAAAAAAGACAAAUCUGCCACAAAGCUUGAGAGCAUCUACGGAUGCAGAGGCGGCAGCCUUCGGUGGCGCGAUAGCACCAACGUUCUCAACUAUGACACGCAAAACGCGUGCUCCGUUGAAUGGAGUUUAUCAUG | -1.28
29 | GGAUCUUCUCGAUCUAACAAAAAAGACAAAUCUGCCACAAAGCUUGAGAGCAUCUACGGAUGCAGAGGCGGCAGCCUUCGGUGACGCGAUAGCGCCAUCGCUCUCAACUAUGACACGCAAAACGCGUGCUCCGUUGAAUGGAGUUUAUCAUG | -1.09
30 | GGAUCUUCUCGAUCUAACAAAAAAGACAAAUCUGCCACAAAGCUUGAGAGCAUCUACGGAUGCAGAGGCGGCAGCCUUCGGUGGCGCGAUAGCCCCAACGUUCUCAACUAUGACCCGCAAUACGCGUGCUCCGAUGAAUGGAGUUUUUCAUG | -3.74
31 | GGAUCUUCUCGAUCUAACAAAAAAGACAAAUCUGCCACAAAGCUUGAGAGCAUCUACGGAUGCAGAGGCGGCAGCCUUCGGGGGCGCGAUAGCGCCAACGUUCUCAACUAUGACACGCAAAACGCGUGCUCCGUUGAAAGGAGUUUAUCAUG | -4.02
32 | GGAUCUUCUCGAUCUAACAAAAAAGACAAAUCUGCCACAAAGCUUGAGAGCAUCUACGGAUGCAGAGGCGGCAGCCUUCGGUGGCGCGAUAGCGCCAACGUUCUCAACCAUGACACGCAAAACGCGUGCUCCGUUGAAUGUAGUUUAUCAUG | -2.56
33 | GGAUCUUCUCGAUCUAACAAAAAAGACAAAUCUGCCACAAAGCUUGAGAGCAUCUACGGAGGCAGAGGCGGCAGCCUUCGGUGGCGCGAUAGCGCCAACGUUCUCAACUAUGACACGCAAAACGCGUGCUCCGGUGAAUGGAGUUUAUCAUG | -3.93
34 | GGAUCUUCUCGAUCUAACAAAAAAGACAAAUCUGCCACAAAGCUUGAGAGCAUCUACGGAUGCAGAGGCGGCAGCCUUCGGUGACGCGAUAGCGCCAACGUUCUAAACUAUGACACGCAAAACGCGUGCUUCGUUGAAUGGAGUUUAUCAUG | -1.2
35 | GGAUCUUCUCGAUCUAACAAAAAAGACAAAUCUGCCACAAAGCUUGAGAGCAUCUACGGAUGCAGAGGCGGCAGCCUUCGGGGGCGCGAUAGCGCUAACGUUCUCAACUAUGACACGCAGAACGCGUGCUCCGUUGAAUGGAGUUUAUCAUG | -0.394
36 | GGAUCUUCUCGAUCUAACAAAAAAGACAAAUCUGCCACAAAGCUUGAGAGCAUCUACGGAUGCAGAGACGGCAGCCUUCGGUGGCGCGAUAGCGCCAACGUUCUCAACUAUGACACGCAAAACGCGUGCUCCGUUGAAUGGAGUUUAUCAUG | -4.01
37 | GGAUCUUCUCGAUCUAACAAAAAAGACAAAUCUGCCACAAAGCUUGAGAGCAUCUACGGAUGCAGAGGCGGCAGCCUUCGGUAGCGCGAUAGCGCCAACGUUCUCAACUAUGACACGCAAAACGCGUGCUCCGUUGAAUGGAGUUUAUCAUG | -0.831
38 | GGAUCUUCUCGAUCUAACAAAAAAGACAAAUCUGCCACAAAGCUUGAGAGCAUCUACGGAUGCAGAGGCGGCAGCCUUCGGUGGCGCGAUAGCGCCAACGGUCUCAACUAUGACACGCAAAACGCGUGCUCCGUUGAAUGGAGCUUAUCAUG | -0.262

Reference: the RNAGym collection of RNA variant scans (doi:10.1073/pnas.2313332121)
